Experimental data reported in PMC3940202, “Structure of Bacillus subtilis γ-glutamyltranspeptidase in complex with acivicin: diversity of the binding mode of a classical and electrophilic active-site-directed glutamate analogue” (Acta Crystallographica Section D: Biological Crystallography, 2014).

Molecular target: T1, Bacillus subtilis γ-glutamyltranspeptidase large (L) subunit (Bacillus subtilis, UniProt P54422 36-402)
T1 construct: γ-glutamyltranspeptidase (GGT; EC 2.3.2.2) of Bacillus subtilis, large subunit, residues 36-402, formed from the precursor by autocatalytic cleavage before Thr403; The range 36-402 is what it gives for the L subunit of the protein; The His-tag segment and residues 396-402 are disordered in the crystal; also called GGT L subunit; His6-GGT (large subunit); source: E. coli C41(DE3), plasmid pCold …
T1 sequence (looked up): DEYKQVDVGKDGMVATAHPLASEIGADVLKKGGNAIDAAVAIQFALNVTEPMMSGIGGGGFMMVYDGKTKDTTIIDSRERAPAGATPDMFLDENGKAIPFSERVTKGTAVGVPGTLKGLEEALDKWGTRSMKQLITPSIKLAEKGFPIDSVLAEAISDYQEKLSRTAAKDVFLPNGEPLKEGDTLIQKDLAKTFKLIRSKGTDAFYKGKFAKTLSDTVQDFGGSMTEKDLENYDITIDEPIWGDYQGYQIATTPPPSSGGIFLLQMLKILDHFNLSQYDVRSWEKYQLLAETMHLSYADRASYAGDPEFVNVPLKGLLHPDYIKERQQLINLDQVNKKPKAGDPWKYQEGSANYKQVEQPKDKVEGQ
Test: crystal structure; micro-oil batch method at 293 K; 10 mg/ml protein in 50 mM HEPES pH 7.0 mixed with 26%(w/v) PEG 3350, 0.7 M sodium thiocyanate, 6%(v/v) ethylene glycol; crystals soaked 2 h in 5 mM acivicin; refined at 1.8 Å; one heterodimer in the asymmetric unit
Settings: both partners purified

B1: Bacillus subtilis γ-glutamyltranspeptidase small (S) subunit (enzyme, UniProt P54422 403-587, looked up)
chain: TTHFTVADRWGNVVSYTTTIEQLFGTGIMVPDYGVILNNELTDFDAIPGGANEVQPNKRPLSSMTPTILFKDDKPVLTVGSPGGATIISSVLQTILYHIEYGMELKAAVEEPRIYTNSMSSYRYEDGVPKDVLSKLNGMGHKFGTSPVDIGNVQSISIDHENGTFKGVADSSRNGAAIGINLKRK
modifications: acivicin covalently bound through its C3 atom to Thr403 Oγ (crystal soaked for 120 min, PDB 3whs; not in the crystal without soaking, PDB 3whq)
notes: γ-glutamyltranspeptidase (GGT); Made as one His6-tagged precursor with the L subunit and processed autocatalytically; also called GGT S subunit
B1: binds.
